Key:
[1] = target: Glutathiolated H-Ras^1-166 (Ras^SSG) (human) (UniProt P01112)
[2] = target: Truncated human H-ras (H-Ras^1-166), wild type (human) (UniProt P01112)

rate of MANT-GDP dissociation from 1 uM Ras with SOS^cat at a 1:1 ratio, 25°C [1]: 0.00185 s⁻¹
rate of MANT-GDP dissociation from 1 uM Ras with SOS^cat at a 1:1 ratio, 25°C [2]: 0.00202 s⁻¹
Substance: Minimal catalytic domain of Son of Sevenless (SOS^cat) (domain or fragment)
